Test results as given in patent publication US20230391888A1 (Sanofi, published 2023).

T1: Human IL4 (IL004, Millipore) (human, UniProt P05112 25-153)
T1 sequence (looked up): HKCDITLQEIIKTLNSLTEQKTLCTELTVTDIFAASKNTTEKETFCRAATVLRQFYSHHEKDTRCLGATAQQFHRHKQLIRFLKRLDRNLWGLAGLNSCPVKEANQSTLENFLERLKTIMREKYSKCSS

B1: PD1 × IL13 bispecific (ID 26, anti-PD1-dsTrasKO2-Fc knob × anti-IL13-huIgG1 hole-RF) (bispecific antibody)
light 1: not shown
heavy 1: not shown
light 2: not shown
heavy 2: EVQLKESGPGLVAPGGSLSITCTVSGFSLTDSSINWVRQPPGKGLEWLGMIWGDGRIDYADALKSRLSISKDSSKSQVFLEMTSLRTDDTATYYCARDGYFPYAMDFWGQGTSVTVSSASTKGPSVFPLAPSSKSTSGGTAALGCLVKDYFPEPVTVSWNSGALTSGVHTFPAVLQSSGLYSLSSVVTVPSSSLGTQTYICNVNHKPSNTKVDKKVEPKSCDKTHTCPPCPAPELLGGPSVFLFPPKPKDTLMISRTPEVTCVVVDVSHEDPEVKFNWYVDGVEVHNAKTKPREEQYNSTYRVVSVLTVLHQDWLNGKEYKCKVSNKALPAPIEKTISKAKGQPREPQVCTLPPSRDELTKNQVSLSCAVKGFYPSDIAVEWESNGQPENNYKTTPPVLDSDGSFFLVSKLTVDKSRWQQGNVFSCSVMHEALHNRFTQKSLSLSPG
notes: PD1 arm is the pseudoFab (dsTrasKO2), IL13 arm the normal Fab
B2: IL4 mAb (ID 18, anti-IL4-VL1-IGKC / anti-IL4-VH1-IgG1) (antibody, V domains shown)
VH: QVQLQQSGPELVKPGASVKISCKASGYSFTSYWIHWIKQRPGQGLEWIGMIDPSDGETRLNQRFQGRATLTVDESTSTAYMQLRSPTSEDSAVYYCTRLKEYGNYDSFYFDVWGAGTLVTVSS
VL: DIQMTQSPASLSVSVGDTITLTCHASQNIDVWLSWFQQKPGNIPKLLIYKASNLHTGVPSRFSGSGSGTGFTLTISSLQPEDIATYYCQQAHSYPFTFGGGTKLEIKR
notes: also called IL4mAb-huIgG1
B3: IL13 pseudo-IgG (ID 22) (antibody)
light: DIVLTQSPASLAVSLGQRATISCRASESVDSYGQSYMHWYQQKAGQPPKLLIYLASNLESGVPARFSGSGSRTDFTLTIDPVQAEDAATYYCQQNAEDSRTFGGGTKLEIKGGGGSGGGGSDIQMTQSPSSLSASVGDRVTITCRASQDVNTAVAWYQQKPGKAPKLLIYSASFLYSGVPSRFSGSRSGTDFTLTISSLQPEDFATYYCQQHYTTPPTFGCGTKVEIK
heavy: EVQLKESGPGLVAPGGSLSITCTVSGFSLTDSSINWVRQPPGKGLEWLGMIWGDGRIDYADALKSRLSISKDSSKSQVFLEMTSLRTDDTATYYCARDGYFPYAMDFWGQGTSVTVSSGGGGSGGGGSEVQLVESGGGLVQPGGSLRLSCAASGFNIKDTYIHWVRQAPGKCLEWVAEIYPTNGYTEYADSVKGRFTISADTSKNTAYLQMNSLRAEDTAVYYCSRWGGDGFYAMDYWGQGTLVTVSSDKTHTHHHHHH
notes: also called IL13 mAb Pseudo-IgG

Columns and labels:
[1] = molecular target: T2, human PD-1 (8986-PD, R&D Systems) (human, UniProt Q15116 25-167); assay: SPR, BIAcore 3000; antibody captured by anti-human Fc, antigen as analyte; column head says nM, but kd/ka gives M
Method: (§1) Surface plasmon resonance (SPR) was used to assess the binding of antigens to antibody. Binding of antigens to the antibody constructs was measured using surface plasmon resonance (SPR) with a BIAcore 3000 instrument (GE Healthcare) with HBS-EP buffer (GE Healthcare). Human IL4 (IL004, Millipore) and human IL13 (IL012, Millipore), human HER2 (1129-ER, R&D Systems), human TNFa (H8916, SIGMA Aldrich), human CTLA4 (CT4-H5229, ACRO Biosystems), human PD-1 (8986-PD, R&D Systems), and human IL6Ra (227-SR/CF, R&D Systems) were used as antigens. The anti-human Fc capture antibody (human antibody capture kit, GE Life Sciences) was immobilized via primary amine groups (11000 RU) on a research grade CM5 chip (GE Life Sciences) using standard procedures. […] Binding tests with HER2 was performed by capture of the antigen with the anti-human Fc antibody. The tested antibody constructs were used as analytes and injected at 100 nM concentration for 240 sec with a dissociation time of 300 sec at a flow rate of 30 μL/min. Binding kinetics measurements were done using the captured antibodies with injects of two-fold serial dilutions of the analytes of 3 nM to 100 nM. […] Chip surfaces were regenerated with 2 min injects of the regeneration buffer provided with the capture kit. Sensorgrams were double referenced with a blank chip surface and HBS-EP buffer blanks. Data analysis was performed using the BIAevaluation software v4.1.

[2] = molecular target: T3, human IL13 (IL012, Millipore) (human, UniProt P35225 35-146); assay: as above
Method: as §1

[3] = molecular target: T2, human PD-1 (8986-PD, R&D Systems); assay: SPR, BIAcore 3000; antibody captured by anti-human Fc, antigen as analyte
Method: as §1

[4] = molecular target: T3, human IL13 (IL012, Millipore); assay: as above
Method: as §1

[5] = molecular target: T1, Human IL4 (IL004, Millipore); assay: SPR, BIAcore 3000; antibody captured by anti-human Fc, antigen as analyte; column head says nM, but kd/ka gives M
Method: as §1

[6] = molecular target: T1, Human IL4 (IL004, Millipore); assay: SPR, BIAcore 3000; antibody captured by anti-human Fc, antigen as analyte
Method: as §1

[7] = molecular target: T3, human IL13 (IL012, Millipore); assay: SPR, BIAcore 3000; antibody captured by anti-human Fc, antigen as analyte; the mark X is not explained
Method: as §1, with “Data analysis was performed using the BIAevaluation software v4.1.” left out

[8] = molecular target: T4, human HER2 (1129-ER, R&D Systems) (human, UniProt P04626 23-652); assay: SPR (BIAcore 3000), binding test with HER2 captured by the anti-human Fc antibody, constructs injected at 100 nM; response as % of theoretical Rmax
T4 construct: also called Receptor tyrosine-protein kinase erbB-2

T3 sequence (P35225 35-146 limits assumed): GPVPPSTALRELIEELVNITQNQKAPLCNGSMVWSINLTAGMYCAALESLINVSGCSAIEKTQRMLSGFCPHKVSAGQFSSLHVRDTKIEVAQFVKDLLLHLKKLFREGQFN
T2 sequence (Q15116 25-167 limits assumed): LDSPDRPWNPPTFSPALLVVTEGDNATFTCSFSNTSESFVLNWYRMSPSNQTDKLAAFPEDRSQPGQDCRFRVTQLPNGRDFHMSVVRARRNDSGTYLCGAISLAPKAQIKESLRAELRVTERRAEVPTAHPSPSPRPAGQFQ

Row | Binder | Kd [1] [pM] | Kd [2] [pM] | koff [3] [s⁻¹] | kon [3] [M⁻¹ s⁻¹] | koff [4] [s⁻¹] | kon [4] [M⁻¹ s⁻¹] | Kd [5] [pM] | koff [6] [s⁻¹] | kon [6] [M⁻¹ s⁻¹] | koff [7] [s⁻¹] | binding result [8]
1 | B1 | 22100 | 5.68 | 0.0029 | 131000 | 1.66e-05 | 2.92e+06 |  |  |  |  | 
2 | B2 |  |  |  |  |  |  | 1.55 | 0.000161 | 1.04e+08 |  | 
3 | B3 |  | 0.425 |  |  |  | 1.54e+06 |  |  |  | 6.56e-07 | no binding (tested: 100 nM)
